One series has as its target T1, B3GNT2 (Homo sapiens, UniProt Q9NY97).
T1 construct: catalytic domain residues 35-397, secreted; N-terminal 8xHis-AviTag-sfGFP-TEV fusion kept; HEK293F host, Ni-NTA
T1 sequence (Q9NY97 35-397): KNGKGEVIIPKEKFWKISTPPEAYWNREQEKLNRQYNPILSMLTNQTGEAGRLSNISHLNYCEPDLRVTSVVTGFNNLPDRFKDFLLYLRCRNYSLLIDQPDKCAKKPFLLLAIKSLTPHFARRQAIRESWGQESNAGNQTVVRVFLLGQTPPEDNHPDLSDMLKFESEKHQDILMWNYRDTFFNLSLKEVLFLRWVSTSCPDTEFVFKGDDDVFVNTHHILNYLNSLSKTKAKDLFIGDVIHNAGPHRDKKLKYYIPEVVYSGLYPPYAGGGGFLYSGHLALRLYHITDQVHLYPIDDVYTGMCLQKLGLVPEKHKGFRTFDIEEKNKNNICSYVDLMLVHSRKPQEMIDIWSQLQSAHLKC
The series is described as follows: radioactive GlcNAc transfer, scintillation counting. The class given is biochemical. Particulars: 0.1 M MES pH 6.5, 10 mM MnCl2, 37 °C, overnight.

Substrate in series [1]: O=[N+]([O-])c1ccc(O[C@@H]2OC[C@@H](O)[C@H](O)[C@H]2O)cc1
Put plainly: purified protein. The conditions noted are these: 2 mM UDP-GlcA, 0.1 M MES pH 6.5, 10 mM MnCl2, 5 mM MgCl2, 37 °C, 2 h, acceptor tested 200 nM to 2 mM. Type of series: biochemical, Homo sapiens.

Substrate in series [2]: O=[N+]([O-])c1ccc(O[C@H]2OC[C@@H](O)[C@H](O)[C@H]2O)cc1
The series is described as follows: purified protein. The class given is biochemical, Homo sapiens. The conditions noted are these: 2 mM UDP-GlcA, 0.1 M MES pH 6.5, 10 mM MnCl2, 5 mM MgCl2, 37 °C, acceptor tested 200 nM to 2 mM.

The mark [3] stands for this setting: 16 h, glucuronyltransferase activity.

This note sets out measurements from publication PMC4227051, “B4GAT1 is the priming enzyme for the LARGE-dependent functional glycosylation of α-dystroglycan” (eLife, 2014).

As usually defined, the Km is the substrate concentration at which the rate is half of its maximum. As a reminder, the kcat is the number of substrate molecules converted per active site and unit of time at saturation. A word on the kcat/Km: it is the turnover number divided by the Michaelis constant.

For the molecule `CC(=O)N[C@H]1[C@@H](OP(=O)(O)OP(=O)(O)OC[C@H]2O[C@@H](n3ccc(=O)[nH]c3=O)[C@H](O)[C@@H]2O)O[C@H](CO)[C@@H](O)[C@@H]1O` [UDP-GlcNAc], the “radioactive GlcNAc transfer, scintillation counting” value on B3GNT2 (donor, labelled compound, acceptor Gal-β4-GlcNAc-β-pNP) is given as “radioactive incorporation of GlcNAc into the N-acetyllactosamine acceptor”.

For the molecule `CC(=O)N[C@H]1[C@H](Oc2ccc([N+](=O)[O-])cc2)O[C@H](CO)[C@@H](O[C@@H]2O[C@H](CO)[C@H](O)[C@H](O)[C@H]2O)[C@@H]1O` [Gal-β4-GlcNAc-β-pNP], the “radioactive GlcNAc transfer, scintillation counting” value at B3GNT2 (2 mM UDP-GlcNAc with UDP-[3H]GlcNAc) was “showed clear N-acetylglucosaminyltransferase activity toward the acceptor only with B3GNT2”.

B1: B3GNT1 (B4GAT1) (Homo sapiens) (protein)
chain: RSVDQVKAQLRTALASGGVLDASGDYRVYRGLLKTTMDPNDVILATHASVDNLLHLSGLLERWEGPLSVSVFAATKEEAQLATVLAYALSSHCPDMRARVAMHLVCPSRYEAAVPDPREPGEFALLRSCQEVFDKLARVAQPGINYALGTNVSYPNNLLRNLAREGANYALVIDVDMVPSEGLWRGLREMLDQSNQWGGTALVVPAFEIRRARRMPMNKNELVQLYQVGEVRPFYYGLCTPCQAPTNYSRWVNLPEESLLRPAYVVPWQDPWEPFYVAGGKVPTFDERFRQYGFNRISQACELHVAGFDFEVLNEGFLVHKGFKEALKFHPQKEAENQHNKILYRQFKQELKAKYPNSPRRC
notes: catalytic domain residues 54-415, secreted, transmembrane domain removed; N-terminal 8xHis-AviTag-sfGFP-TEV fusion cut by TEV; HEK293F host, Ni-NTA
B1: in “purified protein [1]”, the Km is 4.0 mM, the kcat is 0.25 s⁻¹ and the kcat/Km was 63 M⁻¹ s⁻¹. In addition, in the series “purified protein [2]” (2 h), the Km stood at 3.0 mM, the kcat was 0.087 s⁻¹ and the kcat/Km worked out at 29 M⁻¹ s⁻¹.

B2: LARGE (Homo sapiens) (protein)
chain: PSHRRGNHSKTYSMEEGTGDSENLRAGIVAGNSSECGQQPVVEKCETIHVAIVCAGYNASRDVVTLVKSVLFHRRNPLHFHLIADSIAEQILATLFQTWMVPAVRVDFYNADELKSEVSWIPNKHYSGIYGLMKLVLTKTLPANLERVIVLDTDITFATDIAELWAVFHKFKGQQVLGLVENQSDWYLGNLWKNHRPWPALGRGYNTGVILLLLDKLRKMKWEQMWRLTAERELMGMLSTSLADQDIFNAVIKQNPFLVYQLPCFWNVQLSDHTRSEQCYRDVSDLKVIHWNSPKKLRVKNKHVEFFRNLYLTFLEYDGNLLRRELFGCPSEADVNSENLQKQLSELDEDDLCYEFRRERFTVHRTHLYFLHYEYEPAADSTDVTLVAQLSMDRLQMLEAICKHWEGPISLALYLSDAEAQQFLRYAQGSEVLMSRHNVGYHIVYKEGQFYPVNLLRNVAMKHISTPYMFLSDIDFLPMYGLYEYLRKSVIQLDLANTKKAMIVPAFETLRYRLSFPKSKAELLSMLDMGTLFTFRYHVWTKGHAPTNFAKWRTATTPYRVEWEADFEPYVVVRRDCPEYDRRFVGFGWNKVAHIMELDVQEYEFIVLPNAYMIHMPHAPSFDITKFRSNKQYRICLKTLKEEFQQDMSRRYGFAALKYLTAENNS
notes: catalytic domains residues 91-756, secreted; N-terminal 8xHis-AviTag-sfGFP-TEV fusion kept; HEK293F host, Ni-NTA
On to B2, for which, in the series “purified protein [2]” (setting [3]), the Km is 6.0 mM, the kcat is 0.005 s⁻¹ and the kcat/Km turned out to be 0.84 M⁻¹ s⁻¹.
